Experimental data from patent US20250152742A1, “COMPOSITIONS AND METHODS FOR NEUROLOGICAL DISEASES” (Trames Bio, Inc., priority 2022, published 2025).
Substitutions are numbered along the chain they refer to. In names and notes the source's numbering stands.

Test system: engineered chimeric receptor SEQ ID NO: 33 and its mutants (human α7-nAChR ligand binding domain / human GlyRα1 ion pore domain) in Lenti-X 293T cells
Assay: YFP fluorescence quenching anion reporter plate reader assay (percent quench, EC50)
Format: cell-based
Settings: for YFP fluorescence quenching using CNL001 (percent quench): receptor named in row; for YFP fluorescence quenching using Facinicline, 30 nM fac: ligand Facinicline 30 nM; for YFP fluorescence quenching using Facinicline, 300 nM fac: ligand Facinicline 300 nM; for YFP fluorescence quenching using Facinicline, 30 uM fac: ligand Facinicline 30 uM; for YFP fluorescence quenching using TC-6987, 1 uM tc6987: ligand TC-6987 1 uM; for YFP fluorescence quenching using TC-6987, 10 uM tc6987: ligand TC-6987 10 uM; for YFP fluorescence quenching using TC-6987, 500 uM tc6987: ligand TC-6987 500 uM; for YFP fluorescence quenching using Varenicline, 3 nM var: ligand Varenicline 3 nM; for YFP fluorescence quenching using Varenicline, 30 nM var: ligand Varenicline 30 nM; for YFP fluorescence quenching using Varenicline, 300 nM var: ligand Varenicline 300 nM; for YFP fluorescence quenching using Varenicline, 500 nM var: ligand Varenicline 500 nM; for YFP fluorescence quenching using Varenicline, 1 uM var: ligand Varenicline 1 uM
Description: To screen these mutant LGICs for those having novel response profiles to ligands, an anion reporter assay was developed to assess the function of the LGICs in a high throughput format. In this assay, cells expressing a YFP reporter whose fluorescence is quenched in the presence of anion are transfected with DNA encoding the channel of interest. Upon exposure to ligand, channels that are activated will flux anion, resulting in a dose-dependent quench of the YFP that can be detected on a plate reader. The greater the quench signal (i.e., the more positive the value), the higher the ligand activity on the receptor is.
Lenti-X 293T cells (LX293T, Clontech) were maintained in DMEM containing 10% FBS and 1% penicillin/streptomycin (Invitrogen). […] Two days before assay, cells were split at a density of 20,000 cells/well in a 96-well tissue culture plate coated with poly-d lysine (Thermo Scientific). The next day, the cells were transiently transfected with 0.1 μg of DNA per well using standard Fugene protocol (Promega). On the day of assay, cells were washed 2 times in 1X extracellular solution (1X ECS: 140 mM NaCl, 5 mM KCl, 1 mM MgCl2, 2 mM CaCl2, 10 mM HEPES, 10 mM glucose, pH 7.2, mOsms 300). After the last wash, 100 μL of 1X ECS was added to the wells and the plate was incubated at 37° C. for 30 min. While incubating the plate, the drugs were diluted to a 2X concentration in 1X ECS-Nal (same components as 1X ECS except the 140 mM NaCl was replaced by 140 mM Nal). The plates were then read on a Flexstation3 (Molecular Devices). Each well, 8 wells at a time, of the plate is read for 2 min using a Flexstation3 (Molecular Devices) as follows: 1) a baseline YFP fluorescence is read for 17 sec, 2) 100 μL of ligand is added, and 3) the changes in YFP fluorescence are then measured every 1.3 sec for 1 minute and 43 seconds. The percent quench is calculated from the average fluorescence of the last 10 seconds of the read divided by the baseline average of the first 15 seconds prior to the ligand addition.
FIGS. 1A-1J provide heat maps of the percent quench of YFP fluorescence following stimulation by various doses of either acetylcholine or the non-native ligand as indicated in the Figures. CODA71 (SEQ ID NO: 33) was used as a control, and CODA75 (SEQ ID NO: 29, a non-responding chimeric engineered receptor) was used as the negative control. Quenching of the fluorescence signal, as indicated by blue shaded cells, indicate the level of engineered receptor activation by the non-native ligand at that concentration.

[1] = 1 nM CNL001, first column so headed
[2] = 1 nM CNL001, second column so headed
[3] = 3 nM brd (TC-5619/Bradanicline)
[4] = 10 nM CNL001, first column so headed
[5] = 10 nM CNL001, second column so headed
[6] = 30 nM brd (TC-5619/Bradanicline)
[7] = 50 nM CNL001, first column so headed
[8] = 50 nM CNL001, second column so headed
[9] = 100 nM CNL001, first column so headed
[10] = 100 nM CNL001, second column so headed
[11] = 300 nM brd (TC-5619/Bradanicline)
[12] = 1 uM CNL001, first column so headed
[13] = 1 uM CNL001, second column so headed

B1: CODA236: engineered receptor: R101F in SEQ ID NO: 33 (protein)
chain: MRCSPGGVWLALAASLLHVSLQGEFQRKLYKELVKNYNPLERPVANDSQPLTVYFSLSLLQIMDVDEKNQVLTTNIWLQMSWTDHYLQWNVSEYPGVKTVFFPDGQIWKPDILLYNSADERFDATFHTNVLVNSSGHCQYLPPGIFKSSCPMDLKNFPMDVQTCKLKFGSWSYGGWSLDLQMQEADISGYIPNGEWDLVGIPGKRSERFYECCKEPYPDVTFTVTMRRRMGYYLIQMYIPSLLIVILSWISFWINMDAAPARVGLGITTVLTMTTQSSGSRASLPKVSYVKAIDIWMAVCLLFVFSALLEYAAVNFVSRQHKELLRFRRKRRHHKSPMLNLFQEDEAGEGRFNFSAYGMGPACLQAKDGISVKGANNSNTTNPPPAPSKSPEEMRKLFIQRAKKIDKISRIGFPMAFLIFNMFYWIIYKIVRREDVHNQ
modifications: synthetic sequence of chimeric LGIC
- YFP fluorescence quenching using CNL001 (percent quench) [1]: 9.048%
- YFP fluorescence quenching using CNL001 (percent quench) [2]: 26.601%
- YFP fluorescence quenching using TC-5619/Bradanicline (percent quench) [3]: 49.33%
- YFP fluorescence quenching using CNL001 (percent quench) [4]: 71.533%
- YFP fluorescence quenching using CNL001 (percent quench) [5]: 72.948%
- YFP fluorescence quenching using TC-5619/Bradanicline (percent quench) [6]: 77.38%
- YFP fluorescence quenching using CNL001 (percent quench) [7]: 75.895%
- YFP fluorescence quenching using CNL001 (percent quench) [8]: 74.238%
- YFP fluorescence quenching using ABT-126 (percent quench) (50 nM abt (ABT-126)): −18.69%
- YFP fluorescence quenching using CNL001 (percent quench) [9]: 76%
- YFP fluorescence quenching using CNL001 (percent quench) [10]: 75.861%
- YFP fluorescence quenching (percent quench) (100 nM CNL002): −9.56%
- YFP fluorescence quenching using ABT-126 (percent quench) (100 nM abt (ABT-126)): −23.01%
- YFP fluorescence quenching using AZD-0328 (percent quench) (100 nM azd0328): −9.78%
- YFP fluorescence quenching using ABT-126 (percent quench) (300 nM abt (ABT-126)): −20.92%
- YFP fluorescence quenching using AZD-0328 (percent quench) (300 nM azd0328): 49.64%
- YFP fluorescence quenching using TC-5619/Bradanicline (percent quench) [11]: 77.51%
- YFP fluorescence quenching using CNL001 (percent quench) [12]: 76.367%
- YFP fluorescence quenching using CNL001 (percent quench) [13]: 76.162%
- YFP fluorescence quenching (percent quench) (1 uM CNL002): 56.9%
- YFP fluorescence quenching using ABT-126 (percent quench) (1 uM abt (ABT-126)): 4.99%
- YFP fluorescence quenching (percent quench) (10 uM ach (acetylcholine)): −18.24%
- YFP fluorescence quenching (percent quench) (30 uM CNL002): 70.28%
- YFP fluorescence quenching using AZD-0328 (percent quench) (30 uM azd0328): 81.14%
- YFP fluorescence quenching (percent quench) (100 uM ach (acetylcholine)): 60%
- YFP fluorescence quenching (percent quench) (1 mM ach (acetylcholine)): 66.07%
- YFP fluorescence quenching (percent quench) (3 mM ach (acetylcholine)): 71.38%
- YFP fluorescence quenching using Facinicline, 30 nM fac: −28.54
- YFP fluorescence quenching using Facinicline, 300 nM fac: 72.98
- YFP fluorescence quenching using Facinicline, 30 uM fac: 87.6
- YFP fluorescence quenching using TC-6987, 1 uM tc6987: 45.34
- YFP fluorescence quenching using TC-6987, 10 uM tc6987: 70.04
- YFP fluorescence quenching using TC-6987, 500 uM tc6987: 75.86
- YFP fluorescence quenching using Varenicline, 3 nM var (first column): 19.949
- YFP fluorescence quenching using Varenicline, 3 nM var (second column): 22.334
- YFP fluorescence quenching using Varenicline, 30 nM var (first column): 15.764
- YFP fluorescence quenching using Varenicline, 30 nM var (second column): 16.213
- YFP fluorescence quenching using Varenicline, 300 nM var (first column): 23.135
- YFP fluorescence quenching using Varenicline, 300 nM var (second column): 22.987
- YFP fluorescence quenching using Varenicline, 500 nM var (first column): 35.048
- YFP fluorescence quenching using Varenicline, 500 nM var (second column): 34.188
- YFP fluorescence quenching using Varenicline, 1 uM var (first column): 71.031
- YFP fluorescence quenching using Varenicline, 1 uM var (second column): 71.005

B2: CODA237: engineered receptor: R101M in SEQ ID NO: 33 (protein)
chain: B1 chain with F101M
modifications: synthetic sequence of chimeric LGIC
- YFP fluorescence quenching using CNL001 (percent quench) [1]: −2.114%
- YFP fluorescence quenching using CNL001 (percent quench) [2]: −5.079%
- YFP fluorescence quenching using TC-5619/Bradanicline (percent quench) [3]: −14.87%
- YFP fluorescence quenching using CNL001 (percent quench) [4]: 15.096%
- YFP fluorescence quenching using CNL001 (percent quench) [5]: 50.554%
- YFP fluorescence quenching using TC-5619/Bradanicline (percent quench) [6]: 69.93%
- YFP fluorescence quenching using CNL001 (percent quench) [7]: 66.585%
- YFP fluorescence quenching using CNL001 (percent quench) [8]: 74.462%
- YFP fluorescence quenching using ABT-126 (percent quench) (50 nM abt (ABT-126)): −24.34%
- YFP fluorescence quenching using CNL001 (percent quench) [9]: 78%
- YFP fluorescence quenching using CNL001 (percent quench) [10]: 77.411%
- YFP fluorescence quenching (percent quench) (100 nM CNL002): −8.68%
- YFP fluorescence quenching using ABT-126 (percent quench) (100 nM abt (ABT-126)): −20.22%
- YFP fluorescence quenching using AZD-0328 (percent quench) (100 nM azd0328): −17.84%
- YFP fluorescence quenching using ABT-126 (percent quench) (300 nM abt (ABT-126)): −20.57%
- YFP fluorescence quenching using AZD-0328 (percent quench) (300 nM azd0328): −11.98%
- YFP fluorescence quenching using TC-5619/Bradanicline (percent quench) [11]: 76.57%
- YFP fluorescence quenching using CNL001 (percent quench) [12]: 79.06%
- YFP fluorescence quenching using CNL001 (percent quench) [13]: 79.162%
- YFP fluorescence quenching (percent quench) (1 uM CNL002): −2.24%
- YFP fluorescence quenching using ABT-126 (percent quench) (1 uM abt (ABT-126)): −19.55%
- YFP fluorescence quenching (percent quench) (10 uM ach (acetylcholine)): −16.79%
- YFP fluorescence quenching (percent quench) (30 uM CNL002): 66.99%
- YFP fluorescence quenching using AZD-0328 (percent quench) (30 uM azd0328): 81.2%
- YFP fluorescence quenching (percent quench) (100 uM ach (acetylcholine)): −18.63%
- YFP fluorescence quenching (percent quench) (1 mM ach (acetylcholine)): 46.28%
- YFP fluorescence quenching (percent quench) (3 mM ach (acetylcholine)): 69.31%
- YFP fluorescence quenching using Facinicline, 30 nM fac: −24.14
- YFP fluorescence quenching using Facinicline, 300 nM fac: −14.38
- YFP fluorescence quenching using Facinicline, 30 uM fac: 88.78
- YFP fluorescence quenching using TC-6987, 1 uM tc6987: −21.62
- YFP fluorescence quenching using TC-6987, 10 uM tc6987: 21.52
- YFP fluorescence quenching using TC-6987, 500 uM tc6987: 60.33
- YFP fluorescence quenching using Varenicline, 3 nM var (first column): 18.429
- YFP fluorescence quenching using Varenicline, 3 nM var (second column): 16.83
- YFP fluorescence quenching using Varenicline, 30 nM var (first column): 23.07
- YFP fluorescence quenching using Varenicline, 30 nM var (second column): 15.868
- YFP fluorescence quenching using Varenicline, 300 nM var (first column): 18.819
- YFP fluorescence quenching using Varenicline, 300 nM var (second column): 19.155
- YFP fluorescence quenching using Varenicline, 500 nM var (first column): 19.117
- YFP fluorescence quenching using Varenicline, 500 nM var (second column): 22.593
- YFP fluorescence quenching using Varenicline, 1 uM var (first column): 24.525
- YFP fluorescence quenching using Varenicline, 1 uM var (second column): 23.383
